Test results as given in patent US20260043807A1.
Read-outs that look alike come from different tables or passages of the source.

Key:
Goat IgG [1] = assay: photo-crosslinking, 365 nm 2 hrs, SDS-PAGE (FIG. 6)
Goat IgG [2] = assay: as above; remark: listed apart in the source

Protein L C* domain T46BPA (designed binder)
conjugation efficiency (Goat IgG [1]): 50% | conjugation efficiency (Goat IgG [2]): 30 to 50%
